Several values for one entry are separate records, joined by “and”; a condition that tells them apart may be missing. Equal values may be shown once.
Columns and labels:
[1] = biological target: Gammanorm 165 mg/ml (Octapharma), diluted to 1 mg/ml in Equilibration buffer; test: column breakthrough, ligand on agarose, residence time 6.0 min
[2] = biological target: Gammanorm 165 mg/ml (Octapharma), diluted to 1 mg/ml in Equilibration buffer; test: column breakthrough, ligand on agarose, residence time 2.4 min

- Qb5 (dynamic binding capacity at 5% breakthrough) [1]: 38.1 mg/ml resin and 38.5 mg/ml resin
- Qb10 (dynamic binding capacity at 10% breakthrough) [1]: 40.6 mg/ml resin and 40.4 mg/ml resin
- Qb80 (dynamic binding capacity at 80% breakthrough) [1]: 46.7 mg/ml resin and 47.1 mg/ml resin
- Qb5 (dynamic binding capacity at 5% breakthrough) [2]: 28.5 mg/ml resin and 29.9 mg/ml resin
- Qb10 (dynamic binding capacity at 10% breakthrough) [2]: 31.4 mg/ml resin and 32.2 mg/ml resin
- Qb80 (dynamic binding capacity at 80% breakthrough) [2]: 43.8 mg/ml resin and 46.1 mg/ml resin
Substance: Regular Z2: ligand dimer containing two copies of protein Z (SEQ ID No. 3 but without the P57I substitutions) (designed binder)
